This is an account of results in PMC3601957, “Structural Basis of Rap Phosphatase Inhibition by Phr Peptides” (PLoS Biology, 2013).

Bounds are passed on as bounds.

Data set [1] addresses T1, RapF (Bacillus subtilis, UniProt P71002).
T1 construct: 6xHis (N, cleaved yes); made in house; host or cells: Escherichia coli BL21 RIL
T1 sequence (P71002 whole entry, looked up): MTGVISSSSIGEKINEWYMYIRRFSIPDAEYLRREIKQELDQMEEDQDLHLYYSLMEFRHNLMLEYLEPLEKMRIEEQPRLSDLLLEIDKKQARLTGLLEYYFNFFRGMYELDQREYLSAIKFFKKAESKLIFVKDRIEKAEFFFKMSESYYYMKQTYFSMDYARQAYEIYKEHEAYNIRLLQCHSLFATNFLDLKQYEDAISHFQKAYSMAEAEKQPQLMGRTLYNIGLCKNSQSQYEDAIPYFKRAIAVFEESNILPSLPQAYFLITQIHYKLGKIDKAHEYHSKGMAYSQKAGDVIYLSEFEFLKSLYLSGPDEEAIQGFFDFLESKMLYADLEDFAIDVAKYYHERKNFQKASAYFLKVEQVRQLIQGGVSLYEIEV
Put plainly: Thermal-shift peptide binding assay, wild-type RapF. The arrangement: species or system B. subtilis. The settings on record: peptide 1 mM, PhrA and PhrE: unpublished data. How it is done:
The thermal-shift assay was conducted in a 7500 Fast Real-time PCR System (Applied Biosystems). Final melt conditions were 20 mM Tris-HCl (pH 8), 100 mM NaCl, 20 µM RapF, and 5× SYPRO Orange (Sigma-Aldrich). The final concentration of the inhibitory peptides was 1 mM when they were present. The assays were carried out at a final volume of 20 µl in 96-well PCR plates. Samples were heated at 1°C/min. Fluorescent intensity was plotted versus temperature and integrated with the GraphPad Prism 4 software using a Boltzmann model to calculate melting temperatures.

Data set [2] deals with T1, RapF. Put plainly: Limited proteolysis with trypsin, wild-type RapF. It is filed as biochemical, B. subtilis. The conditions noted are these: wild-type RapF 1.5 mg/ml, peptide 1 mM, trypsin 1:10,000, 37°C, 0-90 min, SDS-PAGE / native PAGE (60 min); PhrA and PhrE: unpublished data. How it is done:
Wild-type RapF and mutant variants (RapF^E303K, RapF^E303A, RapF^N227A, and RapF^D194A) at a concentration of 1.5 mg/ml were pre-incubated in lysis buffer (10 mM Tris-HCl [pH 8], 0.1 mM EDTA, 1 mM β-mercaptoethanol, 100 mM NaCl, 5% glycerol, and 5 mM CaCl2) in the presence (1 mM) or absence of inhibitory peptides at room temperature for 30 min. The protein was subjected to proteolysis by trypsin (1∶10,000) at 37°C and aliquots of the reaction mixture were taken after 0, 10, 30, and 90 min of incubation, mixed with SDS–PAGE loading buffer and immediately boiled to stop the enzyme reaction. Samples were then separated on 12% acrylamide SDS–PAGE and stained with Coomassie brilliant blue. For the peptide titration experiments, RapF was incubated in lysis buffer with increasing concentrations of PhrF at room temperature for 30 min and subjected to limited proteolysis with trypsin(1∶10,000) at 37°C for 60 min. The reactions were stopped SDS–PAGE loading buffer and analyzed by SDS–PAGE.

The subject of a further data set is RapA. The conditions noted are these: cited from earlier work. The text has this: The RNPP family of Gram-positive quorum sensors presents a characteristic C-terminal TPR domain with seven TPR repeats for the structurally known Raps (RapF and RapH) (Figures 1E and S3),[31]. The RapF TPR domain folded in a large superhelix to generate a pseudo circular structure that was closed in a wide channel (8,588 Å^3, calculated by the CASTp software) by the interaction of the terminal part of TPR7 (and the following C-terminal tail) with the initial part of TPR1 (Figure 1). As a channel, the generated ring-like structure was open on both faces (Figures S4, upper panel) ... || Peptide anchoring should be independent of its sequence. Thus, it is primarily mediated by interactions with the peptide main chain. These interactions are mainly polar in nature and involve the side chain hydrogen bonds and salt bridges of Tyr66, Tyr152, Gln183, Arg223, Asn227, Gln263, and Asp338 with the PhrF backbone (Figure 2). Additionally, the conserved Arg at position 2 of the Phr peptides is anchored by a salt bridge with the side chain of a conserved Asp residue (Asp194 in RapF) from TPR3 (Figure 2). […] The conserved asparagine in the RNPP family (Asn227 in RapF) interacts with the PhrF backbone and supports the key role of this residue in peptide accommodation.

For data set [3], the target named is T2, RapF (B. subtilis, UniProt P71002 1-381).
T2 construct: RapF of Bacillus subtilis, amplified from genomic DNA and cloned in pPROEX-HTa; The text speaks of residues up to Val381, which fits the whole protein; also called wild-type RapF; native RapF; source: E. coli BL21 RIL, purified (HisTrap, TEV digestion, Superdex 200); not shown: His6, N-terminal, cleaved
T2 sequence: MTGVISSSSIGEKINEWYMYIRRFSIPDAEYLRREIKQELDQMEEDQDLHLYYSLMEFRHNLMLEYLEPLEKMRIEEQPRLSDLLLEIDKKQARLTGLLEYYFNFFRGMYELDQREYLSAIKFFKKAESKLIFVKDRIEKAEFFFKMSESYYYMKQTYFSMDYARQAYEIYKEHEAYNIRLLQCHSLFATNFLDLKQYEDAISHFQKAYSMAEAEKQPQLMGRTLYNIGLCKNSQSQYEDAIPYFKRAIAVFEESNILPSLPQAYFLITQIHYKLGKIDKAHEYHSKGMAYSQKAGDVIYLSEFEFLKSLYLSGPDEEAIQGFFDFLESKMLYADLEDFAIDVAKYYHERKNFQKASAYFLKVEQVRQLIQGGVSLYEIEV
The experiment in a line: native gel or EMSA; titration on 8% native gel; 20 µg protein, peptide 50 nM to 1.2 mM in 20 µl buffer A, 15 min at room temperature; midpoint of the transition taken as the apparent Kd. The settings on record: both partners purified.

In a further data set the target is T3, RapF^E303K (B. subtilis, UniProt P71002 1-381, E303K).
T3 construct: RapF of Bacillus subtilis with Glu303 changed to Lys, made from pPROEX-RapF by site-directed mutagenesis; Same construct as m1 with the point mutation; also called RapF Glu303Lys; source: E. coli BL21 RIL, purified as native RapF; not shown: His6, N-terminal, cleaved
T3 sequence: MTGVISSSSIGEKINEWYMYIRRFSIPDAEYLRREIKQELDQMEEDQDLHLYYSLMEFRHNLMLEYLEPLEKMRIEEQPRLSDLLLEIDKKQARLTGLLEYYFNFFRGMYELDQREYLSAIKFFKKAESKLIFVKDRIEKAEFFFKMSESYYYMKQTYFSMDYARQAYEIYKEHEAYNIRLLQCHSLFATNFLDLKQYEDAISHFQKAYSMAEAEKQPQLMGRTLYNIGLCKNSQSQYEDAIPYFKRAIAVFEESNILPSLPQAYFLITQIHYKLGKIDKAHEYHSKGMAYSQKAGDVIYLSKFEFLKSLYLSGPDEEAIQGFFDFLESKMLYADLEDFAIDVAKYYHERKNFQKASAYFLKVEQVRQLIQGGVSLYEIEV
The description is as above. The settings on record: both partners purified.

In another data set the target is T4, RapF^E303A (B. subtilis, UniProt P71002 1-381, E303A).
T4 construct: RapF of Bacillus subtilis with Glu303 changed to Ala, made from pPROEX-RapF by site-directed mutagenesis; Same construct as m1 with the point mutation; also called RapF Glu303Ala; source: E. coli BL21 RIL, purified as native RapF; not shown: His6, N-terminal, cleaved
T4 sequence: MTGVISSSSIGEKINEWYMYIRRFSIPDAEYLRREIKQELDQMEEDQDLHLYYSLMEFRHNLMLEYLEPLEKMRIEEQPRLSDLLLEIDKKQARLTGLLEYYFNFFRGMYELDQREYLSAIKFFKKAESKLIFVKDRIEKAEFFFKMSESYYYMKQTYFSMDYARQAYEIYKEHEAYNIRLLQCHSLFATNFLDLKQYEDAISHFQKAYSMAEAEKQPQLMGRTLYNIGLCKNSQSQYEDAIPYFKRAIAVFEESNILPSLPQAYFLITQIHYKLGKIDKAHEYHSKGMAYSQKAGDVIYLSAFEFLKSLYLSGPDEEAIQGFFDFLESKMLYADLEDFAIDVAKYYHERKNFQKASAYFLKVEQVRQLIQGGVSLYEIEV
The description is as above. The conditions noted are these: both partners purified.

Data set [4] addresses T2, RapF. Put plainly: thermal-shift assay (SYPRO Orange); 20 µM RapF, peptides 1 mM; 20 mM Tris-HCl pH 8, 100 mM NaCl; heated at 1°C/min. The settings on record: both partners purified.
In the next data set the target is T5, RapF^N227A (B. subtilis, UniProt P71002 1-381, N227A).
T5 sequence: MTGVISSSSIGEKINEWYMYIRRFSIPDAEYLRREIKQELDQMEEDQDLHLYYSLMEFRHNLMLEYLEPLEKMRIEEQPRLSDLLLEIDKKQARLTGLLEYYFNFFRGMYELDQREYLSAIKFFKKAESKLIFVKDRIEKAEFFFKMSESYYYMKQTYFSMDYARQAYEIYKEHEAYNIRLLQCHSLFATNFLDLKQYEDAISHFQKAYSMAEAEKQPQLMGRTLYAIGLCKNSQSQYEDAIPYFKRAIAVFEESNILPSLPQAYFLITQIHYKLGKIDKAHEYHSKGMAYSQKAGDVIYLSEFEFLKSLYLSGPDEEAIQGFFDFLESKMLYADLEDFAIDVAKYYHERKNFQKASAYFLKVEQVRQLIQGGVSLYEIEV

The next data set has as its target T6, RapF^D194A (B. subtilis, UniProt P71002 1-381, D194A).
T6 sequence: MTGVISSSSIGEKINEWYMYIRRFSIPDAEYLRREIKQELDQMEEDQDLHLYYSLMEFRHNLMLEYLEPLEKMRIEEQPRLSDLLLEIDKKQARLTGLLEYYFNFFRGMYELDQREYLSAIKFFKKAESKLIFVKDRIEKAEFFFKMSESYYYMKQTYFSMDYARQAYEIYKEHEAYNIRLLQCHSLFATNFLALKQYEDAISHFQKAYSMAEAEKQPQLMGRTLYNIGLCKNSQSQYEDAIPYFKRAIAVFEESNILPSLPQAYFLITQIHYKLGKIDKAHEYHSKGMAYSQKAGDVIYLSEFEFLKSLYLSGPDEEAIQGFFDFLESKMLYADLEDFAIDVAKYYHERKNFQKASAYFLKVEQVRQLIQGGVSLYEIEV

Regarding “PhrE: PhrE, non RapF partner peptide (SRNVT)”, in the data set with RapF [1], the “thermal stabilization by peptide” value is “presented identical melting transitions to those observed in the absence of peptide”. The “protection of RapF against trypsin digestion” value in the data set with RapF [2] is reported as “did not protect against trypsin attack”.
For the molecule “PhrA: PhrA, inhibitor peptide of RapA; non RapF partner peptide (ARNQT)”, in the data set with RapF [1], the “thermal stabilization by peptide” value is reported as “presented identical melting transitions to those observed in the absence of peptide”. In the data set with RapA (RapA Asp192 and His260 mutants, Spo0F∼P dephosphorylation unaffected), the “sensitivity of RapA Asp192 and His260 mutants to peptide” value is recorded as “insensitive to the inhibitory activity of PhrA”. In addition, the “binding to RapA Tyr224 or His260 to alanine mutants” value in the data set with RapA (RapA Tyr224Ala or His260Ala, no effect on enzymatic activity) is “completely abolishes the capacity to bind PhrA”. In addition, the “binding to RapA mutant, Asn to Ala (position of RapF Asn227)” value with RapA (RapA mutant, intact capacity to bind Spo0F) is “impaired capacity to bind the PhrA peptide”. Moreover, the “requirement for inhibition of RapA” value with RapA is reported as “requirement of the free terminal carboxylate group”. Moreover, in the data set on RapA (functional RapA variants), the “sensitivity of RapA mutants at positions of RapF Tyr226 and Leu230” value is listed as “completely insensitive to the PhrA peptide”. For the same molecule, in the data set with RapF [2], the “protection of RapF against trypsin digestion” value is recorded as “did not protect against trypsin attack”.

B1: PhrF (peptide)
peptide: QRGMI
notes: mature active form of the PhrF precursor; The purchase from Genescript is stated for the crystallisation; no other source is named; also called PhrF peptide; source: bought: Genescript
With B1, the Kd was 3.1 µM with RapF [3]; 13.2 µM with RapF^E303K; 29 µM with RapF^E303A; greater than 1200 µM with RapF^N227A; greater than 1200 µM with RapF^D194A. In the data set with RapF [4], the “increment in the melting temperature of RapF with PhrF” value is roughly 20 °C.

B2: PhrC (peptide)
peptide: ERGMT
notes: mature active form of the PhrC precursor; also called PhrC peptide; RapC (PhrC) peptide
Consider B2, for which the Kd in the data set with RapF^E303K was found to be 19.6 µM.
